Assay [1] has as its target T1, BoNT/A HC, recombinant binding domain (C-terminal domain of the heavy chain) of botulinum neurotoxin type A (Clostridium botulinum, UniProt P0DPI0 860-1296). The experiment in a line: SPR BIAcore, HC on chip, scFv in flow. Background: In SPR one partner is held on a chip, and binding of the other changes the refractive index at the surface.
Assay [2] has as its target T1, BoNT/A HC, recombinant binding domain …. The experiment in a line: SPR BIAcore, scFv column of Table 6.
Assay [3] has the same target. As to the kind of experiment: SPR BIAcore, IgG on chip, BoNT/A HC in flow.
The target is the same in assay [4]. The experiment in a line: SPR BIAcore, Hc on chip, scFv in flow.
Assay [5] shares this target.
The target of assay [6] is BoNT/A HC, recombinant binding domain (C-terminal domain of the heavy chain) of botulinum neurotoxin type A (Clostridium botulinum, UniProt P0DPI0 860-1296). The experiment in a line: SPR BIAcore, HC on chip, scFv in flow. The source holds these as a separate data set.

Read-outs that look alike come from different tables or passages of the source.

B1: scFv 3D12 (human, immune library) (scFv)
scFv: QVQLVQSGGGVVHPGRSLKLSCAGSGFTFSDYDMHWVRQAPGKGLEWVAVMWFDGTEKYSAESVKGRFTISRDNSKNTLFLQMNSLRADDTAVYYCAREPDWLLWGDRGALDVWGQGTTVTVSSGGGGSGGGGSGGGGSDIVMTQSPSTLSASVGDRVTITCRASQSISSWLAWYQQKPGKAPKLLMYEASSLESGVPSRFSGSGSGTEFTLTISSLQPDDFAAYYCQHYNTYPYTFGQGTKLEIK
Take B1: in assay [1], the Kd – broadly, the constant that tells how readily two partners part at equilibrium – was 36.9 nM; the off-rate (koff) (commonly the first-order rate constant of dissociation) came out at 0.0005 s⁻¹; the kon (as a rule, the second-order rate constant of association) turned out to be 13000 M⁻¹ s⁻¹. Also, in assay [2], the dissociation constant (Kd) is 36.9 nM, the off-rate constant (koff) turned out to be 0.0005 s⁻¹ and the kon was found to be 13000 M⁻¹ s⁻¹.

B2: S25 IgG (chimeric IgG, murine V domains, human C domains) (antibody, V domains shown)
VH: QVKLQQSGAELVRPGASVKLSCKASGYSLTSYWMNWVKQRPQGGLEWIGNIHPSDSDTRFNQKFEDKATLTVDTSSSTAYMQLSSPTSEDSAVYYCARGLYNGFWYFDVWGQGTTVTVSS
VL: DIELTQSPALMAASPGEKVIITCSVSSSISSSNLHWYQQKSGTSPKPWIYGTSNLASQVPVRFSGSGSGTSYSLTISSMEAEDAATYYCQQWSSYPLTFGAGTKLEIKR
Take B2: in assay [3], the equilibrium dissociation constant (Kd) was 3.9 nM, the koff was 0.0057 s⁻¹ and the on-rate (kon) stood at 1.46e+06 M⁻¹ s⁻¹.

B3: scFv 1F3 (scFv)
scFv: EVQLQQSGARLVKPGASVKLSCKASGYTFTSFWMHWVKQRPGRGLEWIGRLDPNSGETKYNEKFKSKATLTVDKPSSTAYMELSSLTSEDSAVYYCAREAYGYWNFDVWGTGTTVTVSSGGGGSGGGGSGGGGSDIELTQSPASMSASPGEKVTMTCRATSSVSSSYLHWYQQKSGASPKLWIYSASNLASGVPSRFSGSGSGTSYLSTISSVEAEDAATYYCQQYIGYPYTFGGGTKLEIKR
For the molecule B3, in assay [4], the Kd came to 12 nM, the koff was 0.011 s⁻¹ and the kon amounted to 920000 M⁻¹ s⁻¹.

B4: 3D12 IgG (fully human IgG) (antibody, V domains shown)
VH: QVQLVQSGGGVVHPGRSLKLSCAGSGFTFSDYDMHWVRQAPGKGLEWVAVMWFDGTEKYSAESVKGRFTISRDNSKNTLFLQMNSLRADDTAVYYCAREPDWLLWGDRGALDVWGQGTTVTVSS
VL: DIVMTQSPSTLSASVGDRVTITCRASQSISSWLAWYQQKPGKAPKLLMYEASSLESGVPSRFSGSGSGTEFTLTISSLQPDDFAAYYCQHYNTYPYTFGQGTKLEIK
For B4, in assay [5], the Kd was found to be 0.55 nM. For the same molecule, in assay [3], the Kd stood at 0.0562 nM, the off-rate (koff) worked out at 0.000127 s⁻¹ and the kon worked out at 2.26e+06 M⁻¹ s⁻¹.

B5: scFv C39 (scFv)
scFv: QVQLQESGGGSVKPGGSLKLSCAASGFTFSDYYMSWVRQTPEKRLEWVATISDGGSYTYYPDSVKGRFTISRDNAKNNLYLQMSSLKSEDTAIYYCVRYRYDEGLDYWGQGTTVTVSSGGGGSGGGGSGGGGSDIELTQSPASLAVSLGRRATISCRASESVDSYGHSFMHWYQQKPGQPPKLLIYLASNLESGVPARFSGSGSRTDFTLTIDPVEADDAATYYCQQNNEDPYTFGGGTKLEIKR
For B5, in assay [4], the Kd was determined as 2.3 nM, the koff amounted to 0.00032 s⁻¹ and the on-rate constant (kon) came to 140000 M⁻¹ s⁻¹.

B6: scFv 2B6 (human, non-immune library, Tables 9 and 10) (scFv)
chain: VKLVESGPGLVKPSQSLSLTCTVTGYSITSDYAWNWIRQFPGNKLEWMGYINYDGSNNYNPSLKNRISITRDTSKNQFFLKLNSVTSEDTATYYCARAGDGYYVDWYFDVWGTGTTVIVSSGGGGSGGGGSGGGGSYIELTQSPASLAVSLGQRATTSCRASESVDSYGNSFMHWYQQKPGQPPKLLIYLASNLESGVPARFSGSGSRTDFTLTIDPVEADDAATYYCQQNNEDPYTFGGGTKLEIKS
In the case of B6, in assay [6], the Kd turned out to be 71.5 nM, the koff amounted to 0.0078 s⁻¹ and the on-rate constant (kon) was 109000 M⁻¹ s⁻¹.

B7: scFv S25 (scFv)
scFv: QVKLQQSGAELVRPGASVKLSCKASGYSLTSYWMNWVKQRPQGGLEWIGNIHPSDSDTRFNQKFEDKATLTVDTSSSTAYMQLSSPTSEDSAVYYCARGLYNGFWYFDVWGQGTTVTVSSGGGGSGGGGSGGGGSDIELTQSPALMAASPGEKVIITCSVSSSISSSNLHWYQQKSGTSPKPWIYGTSNLASQVPVRFSGSGSGTSYSLTISSMEAEDAATYYCQQWSSYPLTFGAGTKLEIKR
On to B7, for which, in assay [1], the Kd was determined as 73 nM, the dissociation rate constant (koff) is 0.00082 s⁻¹ and the kon amounted to 11000 M⁻¹ s⁻¹. In assay [2], the Kd came to 73 nM, the off-rate constant (koff) came to 0.00081 s⁻¹ and the kon is 11000 M⁻¹ s⁻¹. In assay [4], the Kd was 73 nM, the koff was 0.00082 s⁻¹ and the on-rate constant (kon) stood at 11000 M⁻¹ s⁻¹.

B8: scFv C25 (scFv)
scFv: QVQLQESGGGLVKPGGSLKLSCAASGFTFSDYYMYWVRQTPEKRLEWVATISDGGSYTYYPDSVKGRFTISRDNAKNNLYLQMSSLKSEDTAMYYCSRYRYDDAMDYWGQGTTVTVSSGGGGSGGGGSGGGGSDIELTQSPASLAVSLGQRATISCRASESVDSYGHSFMQWYQQKPGQPPKLLIYRASNLEPGIPARFSGSGSGTDFTLTINPVEADDVATYYCQQSNEDPFTFGSGTKLEIKR
For the molecule B8, the equilibrium dissociation constant (Kd) in assay [1], in assay [2] and in assay [4] was 1.1 nM throughout. Also, the koff in assay [1], in assay [2] and in assay [4] was 0.00033 s⁻¹ each time. Further, the kon in assay [1], in assay [2] and in assay [4] was 300000 M⁻¹ s⁻¹ in each case.

B9: C25 IgG (chimeric IgG, murine V domains, human C domains) (antibody, V domains shown)
VH: QVQLQESGGGLVKPGGSLKLSCAASGFTFSDYYMYWVRQTPEKRLEWVATISDGGSYTYYPDSVKGRFTISRDNAKNNLYLQMSSLKSEDTAMYYCSRYRYDDAMDYWGQGTTVTVSS
VL: DIELTQSPASLAVSLGQRATISCRASESVDSYGHSFMQWYQQKPGQPPKLLIYRASNLEPGIPARFSGSGSGTDFTLTINPVEADDVATYYCQQSNEDPFTFGSGTKLEIKR
For the molecule B9, in assay [5], the equilibrium dissociation constant (Kd) worked out at 11 nM. In assay [3], the Kd turned out to be 1.69 nM, the koff worked out at 0.00224 s⁻¹ and the kon was 1.32e+06 M⁻¹ s⁻¹.

These data come from patent US20040175385A1 (University of California, published 2004).
